Test results from the MegaScale stability set (Tsuboyama et al. 2023).

B1: EEHEE_rd3_1049 (parent)
chain: TTVKLGDIKVTFDNPEKAKKYAQKLAKIYQLTVHVHGDTIHVK
B2: 1ZHC (parent)
chain: HEFRDEISVLKANNPHFDKIFEKHNQLDDDIKTAEQQNASDAEVSHMKKQKLKLKDEIHSMIIEYREK

Variants of: B1
Assay: folding stability dG (cDNA display proteolysis); higher = more stable
Conditions: PBS, room temperature

Variant	folding stability dG
K9N	1.76 kcal/mol
K9I	2.46 kcal/mol
K9D	1.28 kcal/mol
K9R	2.23 kcal/mol
T11L	2.21 kcal/mol
T11H	2.31 kcal/mol
T11S	1.77 kcal/mol
T11V	2.42 kcal/mol
T11R	2.24 kcal/mol
T32N	1.43 kcal/mol
L5G	0.536 kcal/mol
L5S	0.683 kcal/mol
L5M	2.24 kcal/mol
L5P	0.495 kcal/mol
E16I	1.98 kcal/mol
E16T	1.77 kcal/mol
E16W	1.93 kcal/mol
E16Q	1.89 kcal/mol
E16F	1.9 kcal/mol
K4M	2.47 kcal/mol
K4S	1.61 kcal/mol
K4V	2.91 kcal/mol
K4A	1.71 kcal/mol

Variant	folding stability dG
G6N	1.45 kcal/mol
G6V	1.2 kcal/mol
A18Q	0.175 kcal/mol
A18I	0.682 kcal/mol
A18G	0.641 kcal/mol
A18L	0.902 kcal/mol
A18T	0.288 kcal/mol
G37H	1.05 kcal/mol
G37E	1.3 kcal/mol
G37V	1.05 kcal/mol
G37S	1 kcal/mol
G37Q	1.27 kcal/mol
G37N	1.3 kcal/mol
V42R	0.284 kcal/mol
K43V	2.68 kcal/mol
K43P	0.706 kcal/mol
K43S	2.17 kcal/mol
K43W	2.48 kcal/mol
K43R	2.36 kcal/mol
K19H	2.14 kcal/mol
K19Y	2.9 kcal/mol
K19C	3.38 kcal/mol
K19Q	1.89 kcal/mol

Variant	folding stability dG
K19E	1.47 kcal/mol
K19A	1.9 kcal/mol
H41I	2.58 kcal/mol
H41F	2.37 kcal/mol
H41W	2.31 kcal/mol
H41A	1.26 kcal/mol
H41R	1.25 kcal/mol
P15I	2.01 kcal/mol
P15M	2.1 kcal/mol
P15R	1.88 kcal/mol
P15V	1.96 kcal/mol
N14P	0.431 kcal/mol
N14S	2.12 kcal/mol
N14I	1.22 kcal/mol
N14C	2.02 kcal/mol
N14T	1.98 kcal/mol
N14D	2.38 kcal/mol
N14A	1.18 kcal/mol
Y21C	2.04 kcal/mol
Y21E	-0.031 kcal/mol
Y21P	-0.648 kcal/mol
Y21N	-0.383 kcal/mol
Y21H	0.523 kcal/mol

Variant	folding stability dG
Y21W	2.22 kcal/mol
Y21G	-0.676 kcal/mol
Y21F	2.36 kcal/mol
Y21K	-0.234 kcal/mol
L31T	1.06 kcal/mol
L31I	1.05 kcal/mol
L31G	1.66 kcal/mol
K27P	-0.326 kcal/mol
K27V	1.61 kcal/mol
K27H	1.71 kcal/mol
I28G	0.349 kcal/mol
I28T	1.48 kcal/mol
T1F	2.42 kcal/mol
T1W	2.77 kcal/mol
T1C	3.02 kcal/mol
T1P	1.02 kcal/mol
T1Q	1.06 kcal/mol
T1Y	2.52 kcal/mol
T1R	1.28 kcal/mol
T1A	1.43 kcal/mol
T1S	1.23 kcal/mol
T1K	1.19 kcal/mol
T2I	2.23 kcal/mol

Variant	folding stability dG
T2S	1.4 kcal/mol
T2R	1.03 kcal/mol
T2P	0.739 kcal/mol
A22F	1.08 kcal/mol
A22N	0.115 kcal/mol
A22T	0.394 kcal/mol
A22E	-0.139 kcal/mol
F12H	0.172 kcal/mol
F12S	-0.062 kcal/mol
F12V	0.419 kcal/mol
F12L	0.617 kcal/mol
K24L	2.67 kcal/mol
L25N	-0.312 kcal/mol
L25A	0.276 kcal/mol
L25S	-0.33 kcal/mol
K20Q	2.02 kcal/mol
K20T	1.57 kcal/mol
K20A	2.27 kcal/mol
K20S	1.71 kcal/mol
K20M	2.04 kcal/mol
Q30F	1.87 kcal/mol
V35T	1.5 kcal/mol
V35D	1.57 kcal/mol

Variant	folding stability dG
V35F	2.08 kcal/mol
V35P	0.957 kcal/mol
V35N	1.09 kcal/mol
V35W	1.99 kcal/mol
V35Y	2.14 kcal/mol
V35I	2.26 kcal/mol
D13W	2.01 kcal/mol
K17Q	2.21 kcal/mol
K17H	2.02 kcal/mol
K17S	2.05 kcal/mol
D7P	2.31 kcal/mol
D7C	3.56 kcal/mol
D7E	1.97 kcal/mol
D7I	2.64 kcal/mol
D7S	2.73 kcal/mol
T39C	2.26 kcal/mol
T39F	1.77 kcal/mol
T39P	0.457 kcal/mol
T39A	1.13 kcal/mol
H34C	3.12 kcal/mol
H34I	2.44 kcal/mol
H34T	2.12 kcal/mol
H34E	2.46 kcal/mol

Variant	folding stability dG
H34D	1.58 kcal/mol
H34M	2.08 kcal/mol
H34V	2.59 kcal/mol
H34R	1.64 kcal/mol
A26V	0.862 kcal/mol
A26S	1.23 kcal/mol
A26W	1.2 kcal/mol
A26Q	0.896 kcal/mol
V10M	2 kcal/mol
V10E	0.411 kcal/mol
V10I	2.48 kcal/mol
I8L	2.19 kcal/mol
I8T	1.54 kcal/mol
I8A	1.18 kcal/mol
I8V	1.88 kcal/mol
I8E	0.747 kcal/mol
H36N	2.04 kcal/mol
H36T	2.07 kcal/mol
H36W	1.99 kcal/mol
H36Y	2.19 kcal/mol
I40S	0.541 kcal/mol
I40E	0.224 kcal/mol
I40C	0.854 kcal/mol

Variant	folding stability dG
I40D	0.287 kcal/mol
I40V	1.3 kcal/mol
I40G	0.535 kcal/mol
Q23S	1.58 kcal/mol
Q23H	1.9 kcal/mol
Q23D	1.91 kcal/mol
Q23T	1.64 kcal/mol
Y29P	0.516 kcal/mol
Y29D	-0.065 kcal/mol
V33N	-0.39 kcal/mol
V33D	-0.143 kcal/mol
V33M	1.78 kcal/mol
V33Q	0.334 kcal/mol
V33P	0.242 kcal/mol
D38G	1.6 kcal/mol
D38L	1.83 kcal/mol
D38K	1.85 kcal/mol
D38R	1.86 kcal/mol
D38E	1.47 kcal/mol
V3G	0.742 kcal/mol
V3K	0.686 kcal/mol
V3I	1.34 kcal/mol
V3N	0.593 kcal/mol

Variants of: B2
Assay: as above
Conditions: PBS, room temperature

Variant	folding stability dG
I7L	0.235 kcal/mol
I7C	1.14 kcal/mol
I7M	-0.64 kcal/mol
I7W	0.295 kcal/mol
I7R	-0.653 kcal/mol
I7F	0.109 kcal/mol
I7H	-0.334 kcal/mol
I7V	0.475 kcal/mol
I7T	-0.043 kcal/mol
I7N	-0.499 kcal/mol
I7K	-0.95 kcal/mol
I7Y	0.804 kcal/mol
I7A	-0.185 kcal/mol
I7E	-0.7 kcal/mol
H1K	0.855 kcal/mol
H1W	1.34 kcal/mol
H1D	1.28 kcal/mol
H1I	0.939 kcal/mol
H1F	1.05 kcal/mol
H1E	1.23 kcal/mol
H1N	0.835 kcal/mol
H1Q	0.787 kcal/mol
H1P	0.497 kcal/mol
H1A	0.874 kcal/mol
H1M	1.11 kcal/mol

Variant	folding stability dG
H1L	1.12 kcal/mol
H1S	1.03 kcal/mol
H1Y	0.73 kcal/mol
H1R	0.829 kcal/mol
H1G	0.836 kcal/mol
H1T	0.856 kcal/mol
H1V	0.768 kcal/mol
R4V	0.547 kcal/mol
R4I	1.02 kcal/mol
R4W	1.49 kcal/mol
R4S	1.05 kcal/mol
R4D	1.04 kcal/mol
R4F	1.5 kcal/mol
R4Q	1.08 kcal/mol
R4P	0.834 kcal/mol
R4Y	1.25 kcal/mol
R4H	0.919 kcal/mol
R4E	1.08 kcal/mol
R4K	0.923 kcal/mol
R4M	1.13 kcal/mol
R4L	1.17 kcal/mol
R4A	1.26 kcal/mol
R4T	0.952 kcal/mol
R4G	0.834 kcal/mol
R4N	0.384 kcal/mol

Variant	folding stability dG
E6C	1.95 kcal/mol
E6G	-0.608 kcal/mol
E6S	0.271 kcal/mol
E6N	0.08 kcal/mol
E6M	1.46 kcal/mol
E6F	1.4 kcal/mol
E6A	1.3 kcal/mol
E6Q	-0.376 kcal/mol
E6I	2.1 kcal/mol
E6H	0.158 kcal/mol
E6Y	1.42 kcal/mol
E6L	1.76 kcal/mol
E6P	0.04 kcal/mol
E6W	1.55 kcal/mol
E6K	-0.498 kcal/mol
E6D	0.718 kcal/mol
E6R	0.234 kcal/mol
E6V	1.5 kcal/mol
E6T	1.14 kcal/mol
F3Q	0.544 kcal/mol
F3V	0.222 kcal/mol
F3D	0.364 kcal/mol
F3L	1.04 kcal/mol
F3R	-0.674 kcal/mol
F3T	0.328 kcal/mol

Variant	folding stability dG
F3N	0.409 kcal/mol
F3P	0.015 kcal/mol
F3E	0.242 kcal/mol
F3I	0.418 kcal/mol
F3S	0.019 kcal/mol
F3M	0.267 kcal/mol
F3H	0.635 kcal/mol
F3G	0.249 kcal/mol
F3Y	1.05 kcal/mol
F3W	1.15 kcal/mol
F3A	0.526 kcal/mol
F3K	0.26 kcal/mol
V9D	0.497 kcal/mol
V9G	0.417 kcal/mol
V9H	1.49 kcal/mol
V9F	2.05 kcal/mol
V9E	0.933 kcal/mol
V9C	1.91 kcal/mol
V9I	1.06 kcal/mol
V9A	1.16 kcal/mol
S8K	1.21 kcal/mol
S8A	1.56 kcal/mol
S8E	1.32 kcal/mol
S8W	1 kcal/mol
S8H	0.57 kcal/mol

Variant	folding stability dG
S8L	1.21 kcal/mol
S8M	1.4 kcal/mol
S8D	0.953 kcal/mol
S8T	1.08 kcal/mol
S8V	0.784 kcal/mol
S8N	0.922 kcal/mol
S8G	0.671 kcal/mol
S8F	1 kcal/mol
S8Q	1.11 kcal/mol
S8C	1.67 kcal/mol
S8P	-0.067 kcal/mol
S8R	1.26 kcal/mol
S8Y	0.782 kcal/mol
S8I	0.988 kcal/mol
E2K	0.746 kcal/mol
E2D	0.711 kcal/mol
E2Q	1.07 kcal/mol
E2T	0.802 kcal/mol
E2H	0.917 kcal/mol
E2G	0.827 kcal/mol
E2Y	1 kcal/mol
E2F	0.966 kcal/mol
E2I	0.998 kcal/mol
E2A	1.29 kcal/mol
E2S	0.328 kcal/mol

Variant	folding stability dG
E2R	1.19 kcal/mol
E2M	0.855 kcal/mol
E2N	0.525 kcal/mol
E2P	0.82 kcal/mol
E2W	1.66 kcal/mol
E2V	1.2 kcal/mol
E2L	1.08 kcal/mol
D5A	0.255 kcal/mol
D5G	0.455 kcal/mol
D5V	0.719 kcal/mol
D5W	1.47 kcal/mol
D5R	0.858 kcal/mol
D5Y	1.53 kcal/mol
D5Q	0.415 kcal/mol
D5H	1.23 kcal/mol
D5F	1.36 kcal/mol
D5M	0.985 kcal/mol
D5I	1.04 kcal/mol
D5P	-0.163 kcal/mol
D5S	0.508 kcal/mol
D5K	0.902 kcal/mol
D5L	0.917 kcal/mol
D5E	0.721 kcal/mol
D5T	0.722 kcal/mol
D5N	0.625 kcal/mol
